From the supplement of paper PMC9112550, “Optimization of the antimicrobial peptide Bac7 by deep mutational scanning” (BMC Biology, 2022)

System: Escherichia coli TOP10
Experiment: shrunken log2 fold change of peptide-encoding DNA abundance (4.5 h post-induction vs induction); higher = less antimicrobial activity (less host growth inhibition)
Conditions: time post-induction: 4.5 h; library: site-saturation at positions 5, 18, 19, 20
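Also: peptides expressed intracellularly from a pBAD plasmid library in pooled LB shake-flask culture, induced with 0.3% L-arabinose, DNA abundance read by NGS, three biological replicates, DESeq2 with apeglm shrinkage.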

Sequence | shrunken log2 fold change
RRIRVRPPRLPRPRPRPMTAPRP | -0.12
RRIRVRPPRLPRPRPRPMTTPRP | 0.0377
RRIRVRPPRLPRPRPRPMVGPRP | 0.0148
RRIRVRPPRLPRPRPRPMVIPRP | 0.0224
RRIRVRPPRLPRPRPRPMWFPRP | -0.0469
RRIRVRPPRLPRPRPRPNCGPRP | 0.0742
RRIRVRPPRLPRPRPRPNDSPRP | -0.326
RRIRVRPPRLPRPRPRPNEYPRP | -0.487
RRIRVRPPRLPRPRPRPNFKPRP | -0.0173
RRIRVRPPRLPRPRPRPNGAPRP | -0.0189
RRIRVRPPRLPRPRPRPNGPPRP | 0.144
RRIRVRPPRLPRPRPRPNGWPRP | 0.0568
RRIRVRPPRLPRPRPRPNIEPRP | -0.616
RRIRVRPPRLPRPRPRPNKQPRP | 0.0173
RRIRVRPPRLPRPRPRPNKVPRP | -0.271
RRIRVRPPRLPRPRPRPNLSPRP | -0.444
RRIRVRPPRLPRPRPRPNLTPRP | -0.186
RRIRVRPPRLPRPRPRPNMIPRP | -0.491
RRIRVRPPRLPRPRPRPNMTPRP | -0.256
RRIRVRPPRLPRPRPRPNNIPRP | -0.937
RRIRVRPPRLPRPRPRPNPEPRP | -0.286
RRIRVRPPRLPRPRPRPNPIPRP | 0.129
RRIRVRPPRLPRPRPRPNPSPRP | 0.0073
RRIRVRPPRLPRPRPRPNQIPRP | -0.1
RRIRVRPPRLPRPRPRPNRFPRP | 0.11

Sequence | shrunken log2 fold change
RRIRVRPPRLPRPRPRPNTDPRP | -0.626
RRIRVRPPRLPRPRPRPNVQPRP | -0.0734
RRIRVRPPRLPRPRPRPNWYPRP | -0.523
RRIRVRPPRLPRPRPRPNYLPRP | -0.102
RRIRVRPPRLPRPRPRPNYTPRP | -0.533
RRIRVRPPRLPRPRPRPPCSPRP | -0.116
RRIRVRPPRLPRPRPRPPDWPRP | 0.46
RRIRVRPPRLPRPRPRPPIYPRP | -0.16
RRIRVRPPRLPRPRPRPPLKPRP | 0.343
RRIRVRPPRLPRPRPRPPLLPRP | 0.287
RRIRVRPPRLPRPRPRPPMDPRP | -0.291
RRIRVRPPRLPRPRPRPPMEPRP | -0.172
RRIRVRPPRLPRPRPRPPNCPRP | 0.194
RRIRVRPPRLPRPRPRPPNQPRP | 0.184
RRIRVRPPRLPRPRPRPPPNPRP | 0.73
RRIRVRPPRLPRPRPRPPRDPRP | 0.303
RRIRVRPPRLPRPRPRPPTAPRP | 0.43
RRIRVRPPRLPRPRPRPPTGPRP | 0.245
RRIRVRPPRLPRPRPRPPTLPRP | 0.252
RRIRVRPPRLPRPRPRPPVFPRP | 0.00719
RRIRVRPPRLPRPRPRPPWKPRP | -0.0783
RRIRVRPPRLPRPRPRPPYYPRP | -0.363
RRIRVRPPRLPRPRPRPQCIPRP | 0.101
RRIRVRPPRLPRPRPRPQDKPRP | -0.603
RRIRVRPPRLPRPRPRPQFEPRP | -0.119

Sequence | shrunken log2 fold change
RRIRVRPPRLPRPRPRPQHLPRP | -0.117
RRIRVRPPRLPRPRPRPQHNPRP | -0.604
RRIRVRPPRLPRPRPRPQHSPRP | -0.245
RRIRVRPPRLPRPRPRPQIAPRP | -0.0465
RRIRVRPPRLPRPRPRPQIEPRP | -0.0116
RRIRVRPPRLPRPRPRPQKWPRP | 0.202
RRIRVRPPRLPRPRPRPQLWPRP | 0.0627
RRIRVRPPRLPRPRPRPQMLPRP | -0.158
RRIRVRPPRLPRPRPRPQMPPRP | 0.204
RRIRVRPPRLPRPRPRPQNNPRP | -0.66
RRIRVRPPRLPRPRPRPQPHPRP | 0.0498
RRIRVRPPRLPRPRPRPQQAPRP | -0.0616
RRIRVRPPRLPRPRPRPQQHPRP | -0.0119
RRIRVRPPRLPRPRPRPQRPPRP | 0.306
RRIRVRPPRLPRPRPRPQRRPRP | 0.0241
RRIRVRPPRLPRPRPRPQTRPRP | 0.355
RRIRVRPPRLPRPRPRPQVFPRP | -0.0729
RRIRVRPPRLPRPRPRPQVHPRP | -0.14
RRIRVRPPRLPRPRPRPQVQPRP | -0.208
RRIRVRPPRLPRPRPRPQWFPRP | -0.134
RRIRVRPPRLPRPRPRPQWWPRP | 0.0756
RRIRVRPPRLPRPRPRPQYHPRP | -0.648
RRIRVRPPRLPRPRPRPRAMPRP | 0.213
RRIRVRPPRLPRPRPRPRDMPRP | -0.0624
RRIRVRPPRLPRPRPRPRFHPRP | -0.264
